In patent publication US20190202920A1 (F STAR BETA, published 2019):
Where a chain is given by its changes, count along the chain named.

B1: mAb^2 RI/FS1-60 (bispecific antibody, human IgG2, kappa)
heavy: QVQLQESGPGLVKPSETLSLTCTVSGGSISIYYWSWIRQPPGKGLEWIGYVYYSGSTNYNPSLKSRVTISVDTSKNQFSLKLNSVTAADTAVYYCARGGYDFWSGYFDYWGQGTLVTVSSASTKGPSVFPLAPCSRSTSESTAALGCLVKDYFPEPVTVSWNSGALTSGVHTFPAVLQSSGLYSLSSVVTVPSSNFGTQTYTCNVDHKPSNTKVDKTVERKCCVECPPCPAPPVAGPSVFLFPPKPKDTLMISRTPEVTCVVVDVSHEDPEVQFNWYVDGVEVHNAKTKPREEQFNSTFRVVSVLTVVHQDWLNGKEYKCKVSNKGLPAPIEKTISKTKGQPREPQVYTLPPSRDELDEGGPVSLTCLVKGFYPSDIAVEWESTYGPENNYKTTPPVLDSDGSFFLYSRLTVSHWRWYSGNVFSCSVMHEALHNHYTQKSLSLSPG
light: not shown
B2: mAb^2 RI/FS1-65 (bispecific antibody, human IgG2, kappa)
heavy: B1 heavy with R409K, H414Y, Y418V, S419K
light: not shown
B3: mAb^2 FI/FS1-60 (bispecific antibody, human IgG1, kappa)
heavy: QVQLVQPGAEVKKPGTSVKLSCKASGYTFTTYWMHWVRQAPGQGLEWIGEINPTNGHTNYNQKFQGRATLTVDKSTSTAYMELSSLRSEDTAVYYCARNYVGSIFDYWGQGTLLTVSSASTKGPSVFPLAPSSKSTSGGTAALGCLVKDYFPEPVTVSWNSGALTSGVHTFPAVLQSSGLYSLSSVVTVPSSSLGTQTYICNVNHKPSNTKVDKRVEPKSCDKTHTCPPCPAPELLGGPSVFLFPPKPKDTLMISRTPEVTCVVVDVSHEDPEVKFNWYVDGVEVHNAKTKPREEQYNSTYRVVSVLTVLHQDWLNGKEYKCKVSNKALPAPIEKTISKAKGQPREPQVYTLPPSRDELDEGGPVSLTCLVKGFYPSDIAVEWESTYGPENNYKTTPPVLDSDGSFFLYSRLTVSHWRWYSGNVFSCSVMHEALHNHYTQKSLSLSPG
light: DIVMTQSPDSLAMSLGERVTLNCKASENVVSYVSWYQQKPGQSPKLLIYGASNRESGVPDRFSGSGSATDFTLTISSVQAEDVADYHCGQSYNYPYTFGQGTKLEIKRTVAAPSVFIFPPSDEQLKSGTASVVCLLNNFYPREAKVQWKVDNALQSGNSQESVTEQDSKDSTYSLSSTLTLSKADYEKHKVYACEVTHQGLSSPVTKSFNRGEC

What was measured:
[1] = target: T1, cell surface EGFR on human cancer cell lines (A431NS, MDA-MB-468, U87MG) (human, UniProt P00533 25-1210); test: flow cytometry, blocking of biotinylated EGF binding to MDA-MB-468 cells
T1 construct: whole, on cells; The cell line of each entry is named under assay; also called EGFR on A431NS cells; EGFR on MDA-MB-468 cells

[2] = target: T2, His-tagged human EGFR (Sino Biological) (human, UniProt P00533 25-645); test: SPR (BIAcore T200), mAb^2 captured on anti-human Fab chip, His-tagged human EGFR as analyte, 1:1 fit
T2 construct: also called His-tagged EGFR

[3] = target: T3, cell surface EGFR on NCI-H1975 cells (mutated EGFR L858R and T790M) (UniProt P00533 25-1210, limits assumed); test: flow cytometry on NCI-H1975 cells
T3 construct: whole, on cells

[4] = target: T4, cell surface EGFR on HCC827 cells (E746-A750 deletion) (UniProt P00533 25-1210); test: flow cytometry on HCC827 cells
T4 construct: whole, on cells; Residues E746-A750 are deleted; a deletion cannot be written as a substitution

Binder | IC50 [1] [nM] | Kd [2] [nM] | EC50 [3] [nM] | EC50 [4] [nM]
B1 | 0.45 | 3.6 | – | –
B2 | – | 1.8 | 2.16 | 3.56
B3 | 0.71 | 3.5 | – | –
